biological target: Moritella marina polyketide synthase (PKS), four polypeptides Orf5, Orf6, Orf7 and Orf8

Protein	DHA Produced (gas chromatography of fatty acid methyl esters from E. coli co-expressing the Ppt and the PKS)
Colwellia psychrerythraea phosphopantetheinyl transferase (Cp-ppt) (protein) MTSFSQSELSTRTKEKLDLAANEIHIWVTKPEELLGNDELLATYSTLLTSTETAKQQRYKFAKDRHDALITRAFIRDLLSYYADVAPQDWQFEKGNKDKPEVINCPLPLRFNISHTKNLIICAVTLEDDIGCDVENTGRNNNVLAIAERYFSSKEIDELFALPEAQQRNRFFDYWTLKESYIKAWGLGLAIPLADFSFKINDTEHNHNGLFTIKQDINLSFAEHRVDEPQIWRSWLVYPTAAIDEKQEHRIAVSLRATSDNQKTDYQLRFFNTLPLLGYQEI	Yes
Moritella marina phosphopantetheinyl transferase, long form (Mm-ppt long) (protein) LVQLKTYDETRLRSDGVNYLGGNLSYYQACNGKRIILVSILIMYSGVKDKLTLTTNEIHLWSVTPQTIQQPELLQAYSQLLSPAETIKQQRFRFEKDRHNALITRAFVRDLLSHYADVLPADWQFVKGEKDKPEIANPPLPLRFNISHTDNLIICAVMLNDDIGCDVENTLRSSNVLSIAKHSFSDSEFNDLLTQPTAQQTSRFFDYWTLKESYIKAWGLGLSIPLKDFSFTLPEGFQQQYQQEDQQENQHCIDTIKLSFAPHRIDNPNIWRHWLFYPNNTHRVALAVRARSNNQQTEYKMRFFNSTPLINITETLIFKPETNFKPDAK	Yes
Shewanella oneidensis MR-1 phosphopantetheinyl transferase (So-ppt) (protein) MKIELFFIPLAEMDAEMVSRCMALLSEDERAKVARYLAPKAQMNGLLVRAALRCVLSQGLQSPNESSLNAFSSNTGSLPIAPQDWCFEYGAKGKPSLCHEQFLKTGIEFNLSHSGDWLLIALAQGRAHTKFIDQSAKTRLGLGVDIERARASTNIYPILNHYFSARETEALLALPGETAHRQRFFDLWALKESYIKATGLGLAQSLKSFAFELMPDALVEVHPNQVALRHEWVELKRREPFALPSQLKLYCEIKPTAAFLPDSAHPPPENLHVQSYFGRLDEEYRFGLSLIHPNALSNVQISMTLASIKSLLAASLAD	Yes
Moritella marina phosphopantetheinyl transferase, short form (Mm-ppt short) (protein) MYSGVKDKLTLTTNEIHLWSVTPQTIQQPELLQAYSQLLSPAETIKQQRFRFEKDRHNALITRAFVRDLLSHYADVLPADWQFVKGEKDKPEIANPPLPLRFNISHTDNLIICAVMLNDDIGCDVENTLRSSNVLSIAKHSFSDSEFNDLLTQPTAQQTSRFFDYWTLKESYIKAWGLGLSIPLKDFSFTLPEGFQQQYQQEDQQENQHCIDTIKLSFAPHRIDNPNIWRHWLFYPNNTHRVALAVRARSNNQQTEYKMRFFNSTPLINITETLIFKPETNFKPDAK	Yes
